Test results: US12099068B2, “Biomarkers for graft-versus-host disease” (Incyte Corporation, priority 2018, dated 2024)

B1: CKAP4 (protein, UniProt Q07065 1-602, looked up)
Cytoskeleton-associated …: MPSAKQRGSKGGHGAASPSEKGAHPSGGADDVAKKPPPAPQQPPPPPAPHPQQHPQQHPQNQAHGKGGHRGGGGGGGKSSSSSSASAAAAAAAASSSASCSRRLGRALNFLFYLALVAAAAFSGWCVHHVLEEVQQVRRSHQDFSRQREELGQGLQGVEQKVQSLQATFGTFESILRSSQHKQDLTEKAVKQGESEVSRISEVLQKLQNEILKDLSDGIHVVKDARERDFTSLENTVEERLTELTKSINDNIAIFTEVQKRSQKEINDMKAKVASLEESEGNKQDLKALKEAVKEIQTSAKSREWDMEALRSTLQTMESDIYTEVRELVSLKQEQQAFKEAADTERLALQALTEKLLRSEESVSRLPEEIRRLEEELRQLKSDSHGPKEDGGFRHSEAFEALQQKSQGLDSRLQHVEDGVLSMQVASARQTESLESLLSKSQEHEQRLAALQGRLEGLGSSEADQDGLASTVRSLGETQLVLYGDVEELKRSVGELPSTVESLQKVQEQVHTLLSQDQAQAARLPPQDFLDRLSSLDNLKASVSQVEADLKMLRTAVDSLVAYSVKIETNENNLESAKGLLDDLRNDLDRLFVKVEKIHEKV
B2: C1QTNF1 (protein, UniProt Q9BXJ1 26-281, looked up)
Complement C1q tumor necrosis …: RVPHVQGEQQEWEGTEELPSPPDHAERAEEQHEKYRPSQDQGLPASRCLRCCDPGTSMYPATAVPQINITILKGEKGDRGDRGLQGKYGKTGSAGARGHTGPKGQKGSMGAPGERCKSHYAAFSVGRKKPMHSNHYYQTVIFDTEFVNLYDHFNMFTGKFYCYVPGLYFFSLNVHTWNQKETYLHIMKNEEEVVILFAQVGDRSIMQSQSLMLELREQDQVWVRLYKGERENAIFSEELDTYITFSGYLVKHATEP
B3: PLIN1 (protein, UniProt O60240 1-522, looked up)
Perilipin-1: MAVNKGLTLLDGDLPEQENVLQRVLQLPVVSGTCECFQKTYTSTKEAHPLVASVCNAYEKGVQSASSLAAWSMEPVVRRLSTQFTAANELACRGLDHLEEKIPALQYPPEKIASELKDTISTRLRSARNSISVPIASTSDKVLGAALAGCELAWGVARDTAEFAANTRAGRLASGGADLALGSIEKVVEYLLPPDKEESAPAPGHQQAQKSPKAKPSLLSRVGALTNTLSRYTVQTMARALEQGHTVAMWIPGVVPLSSLAQWGASVAMQAVSRRRSEVRVPWLHSLAAAQEEDHEDQTDTEGEDTEEEEELETEENKFSEVAALPGPRGLLGGVAHTLQKTLQTTISAVTWAPAAVLGMAGRVLHLTPAPAVSSTKGRAMSLSDALKGVTDNVVDTVVHYVPLPRLSLMEPESEFRDIDNPPAEVERREAERRASGAPSAGPEPAPRLAQPRRSLRSAQSPGAPPGPGLEDEVATPAAPRPGFPAVPREKPKRRVSDSFFRPSVMEPILGRTHYSQLRKKS
B4: PGLYRP1 (protein, UniProt O75594 22-196, looked up)
Peptidoglycan recognition …: QETEDPACCSPIVPRNEWKALASECAQHLSLPLRYVVVSHTAGSSCNTPASCQQQARNVQHYHMKTLGWCDVGYNFLIGEDGLVYEGRGWNFTGAHSGHLWNPMSIGISFMGNYMDRVPTPQAIRAAQGLLACGVAQGALRSNYVLKGHRDVQRTLSPGNQLYHLIQNWPHYRSP
B5: CLEC10A (protein, UniProt Q8IUN9 1-316, looked up)
C-type lectin domain family …: MTRTYENFQYLENKVKVQGFKNGPLPLQSLLQRLCSGPCHLLLSLGLGLLLLVIICVVGFQNSKFQRDLVTLRTDFSNFTSNTVAEIQALTSQGSSLEETIASLKAEVEGFKQERQAGVSELQEHTTQKAHLGHCPHCPSVCVPVHSEMLLRVQQLVQDLKKLTCQVATLNNNASTEGTCCPVNWVEHQDSCYWFSHSGMSWAEAEKYCQLKNAHLVVINSREEQNFVQKYLGSAYTWMGLSDPEGAWKWVDGTDYATGFQNWKPGQPDDWQGHGLGGGEDCAHFHPDGRWNDDVCQRPYHWVCEAGLGQTSQESH
B6: CLM-6 (protein, UniProt Q08708 21-224, looked up)
CMRF35-like molecule 6: GYFPLSHPMTVAGPVGGSLSVQCRYEKEHRTLNKFWCRPPQILRCDKIVETKGSAGKRNGRVSIRDSPANLSFTVTLENLTEEDAGTYWCGVDTPWLRDFHDPIVEVEVSVFPAGTTTASSPQSSMGTSGPPTKLPVHTWPSVTRKDSPEPSPHPGSLFSNVRFLLLVLLELPLLLSMLGAVLWVNRPQRSSRSRQNWPKGENQ
B7: ARG1 (protein, UniProt P05089 1-322, looked up)
Arginase-1: MSAKSRTIGIIGAPFSKGQPRGGVEEGPTVLRKAGLLEKLKEQECDVKDYGDLPFADIPNDSPFQIVKNPRSVGKASEQLAGKVAEVKKNGRISLVLGGDHSLAIGSISGHARVHPDLGVIWVDAHTDINTPLTTTSGNLHGQPVSFLLKELKGKIPDVPGFSWVTPCISAKDIVYIGLRDVDPGEHYILKTLGIKYFSMTEVDRLGIGKVMEETLSYLLGRKKRPIHLSFDVDGLDPSFTPATGTPVVGGLTYREGLYITEEIYKTGLLSGLDIMEVNPSLGKTPEEVTRTVNTAVAITLACFGLAREGNHKPIDYLNPPK
B8: SPON2 (protein, UniProt Q9BUD6 27-331, looked up)
Spondin-2: QPLGGESICSARALAKYSITFTGKWSQTAFPKQYPLFRPPAQWSSLLGAAHSSDYSMWRKNQYVSNGLRDFAERGEAWALMKEIEAAGEALQSVHAVFSAPAVPSGTGQTSAELEVQRRHSLVSFVVRIVPSPDWFVGVDSLDLCDGDRWREQAALDLYPYDAGTDSGFTFSSPNFATIPQDTVTEITSSSPSHPANSFYYPRLKALPPIARVTLVRLRQSPRAFIPPAPVLPSRDNEIVDSASVPETPLDCEVSLWSSWGLCGGHCGRLGTKSRTRYVRVQPANNGSPCPELEEEAECVPDNCV
B9: PCDH17 (protein, UniProt O14917 18-1159, looked up)
Protocadherin-17: LKNLNYSVPEEQGAGTVIGNIGRDARLQPGLPPAERGGGGRSKSGSYRVLENSAPHLLDVDADSGLLYTKQRIDRESLCRHNAKCQLSLEVFANDKEICMIKVEIQDINDNAPSFSSDQIEMDISENAAPGTRFPLTSAHDPDAGENGLRTYLLTRDDHGLFGLDVKSRGDGTKFPELVIQKALDREQQNHHTLVLTALDGGEPPRSATVQINVKVIDSNDNSPVFEAPSYLVELPENAPLGTVVIDLNATDADEGPNGEVLYSFSSYVPDRVRELFSIDPKTGLIRVKGNLDYEENGMLEIDVQARDLGPNPIPAHCKVTVKLIDRNDNAPSIGFVSVRQGALSEAAPPGTVIALVRVTDRDSGKNGQLQCRVLGGGGTGGGGGLGGPGGSVPFKLEENYDNFYTVVTDRPLDRETQDEYNVTIVARDGGSPPLNSTKSFAIKILDENDNPPRFTKGLYVLQVHENNIPGEYLGSVLAQDPDLGQNGTVSYSILPSHIGDVSIYTYVSVNPTNGAIYALRSFNFEQTKAFEFKVLAKDSGAPAHLESNATVRVTVLDVNDNAPVIVLPTLQNDTAELQVPRNAGLGYLVSTVRALDSDFGESGRLTYEIVDGNDDHLFEIDPSSGEIRTLHPFWEDVTPVVELVVKVTDHGKPTLSAVAKLIIRSVSGSLPEGVPRVNGEQHHWDMSLPLIVTLSTISIILLAAMITIAVKCKRENKEIRTYNCRIAEYSHPQLGGGKGKKKKINKNDIMLVQSEVEERNAMNVMNVVSSPSLATSPMYFDYQTRLPLSSPRSEVMYLKPASNNLTVPQGHAGCHTSFTGQGTNASETPATRMSIIQTDNFPAEPNYMGSRQQFVQSSSTFKDPERASLRDSGHGDSDQADSDQDTNKGSCCDMSVREALKMKTTSTKSQPLEQEPEECVNCTDECRVLGHSDRCWMPQFPAANQAENADYRTNLFVPTVEANVETETYETVNPTGKKTFCTFGKDKREHTILIANVKPYLKAKRALSPLLQEVPSASSSPTKACIEPCTSTKGSLDGCEAKPGALAEASSQYLPTDSQYLSPSKQPRDPPFMASDQMARVFADVHSRASRDSSEMGAVLEQLDHPNRDLGRESVDAEEVVREIDKLLQDCRGNDPVAVRK

test system: plasma proteins; test: Plasma proteins modulated between baseline and day 28 in responders (CR, VGPR, PR; n = 19), Example 6 (Table 13); assay type: in vivo, human; conditions: plasma protein (OLINK NPX); responders (CR, VGPR, PR; n = 19); itacitinib 200 mg or 300 mg QD with corticosteroids; day 28 vs baseline
In short: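 Longitudinal comparison, day 28 versus baseline, with steroid-naive (N=10) and steroid-refractory (N=18) patients combined. Proteins measured by OLINK proximity extension, log2 normalized protein expression. Differences tested by t tests, ANOVA, Pearson correlation, P<0.05 significant.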

Q: B1 was tested. Which “Fold Change, Decreased Expression from Baseline to Day 28” value (“Fold Change, Decreased Expression” for short) did it give?
A: −1.1904

Q: For B2, which “Fold Change, Decreased Expression” value is on record?
A: −1.2979

Q: With B3 as the molecule, how does the “Fold Change, Increased Expression from Baseline to Day 28” value read?
A: 2.4338

Q: For B4, which “Fold Change, Decreased Expression” value is on record?
A: −1.6181

Q: For B5, which “Fold Change, Decreased Expression” value is on record?
A: −1.274

Q: For B6, which “Fold Change, Decreased Expression” value is on record?
A: −1.1356

Q: B7 was tested. Which “Fold Change, Decreased Expression” value did it give?
A: −1.3036

Q: How did the “Fold Change, Increased Expression from Baseline to Day 28” value turn out when B8 was run?
A: 1.095

Q: How did the “Fold Change, Decreased Expression” value turn out when B9 was run?
A: −1.232
